According to the supplement of paper PMC6755084:

System: F1*sub RNA substrate (template-directed ligation)
Assay: fraction ligated after 30 min (ligated reads / total reads); higher = more ligase activity; sequences stand for … in GAGACCGCAACTGAAAAGTTGT…AGTTCTGCACGTAGAAGCAAAAGGC
Conditions: 42 °C
Summary of the method: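 Oligo-pool templates of ligase ribozyme variants were PCR-amplified, T7-transcribed and gel-purified. Ligated and unligated bands were gel-separated, reverse transcribed with barcoded primers, and MiSeq-sequenced; core bases were filtered at quality ≥20. Fraction ligated per variant was ligated reads over total reads.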

Sequence | fraction ligated
TATCATGTCGTAAGACACTTTGGATGGTTGA [3d1137] | 0.268
TATCATGTCGTAAGACACTTTGGTGGGTTGA [3d1135] | 0.523
TATCATGTCGTAAGACATTTGGATGGGTTGA [3d1132] | 0.801
TATCATGTCGTAAGACCTTTGGATGGGTTGA [3d1131] | 0.778
TATCATGTCGTAAGCACTTTGGATGGGTTGA [3d1129] | 0.761
TATCATGTCGTAGACACTTTGGATGGGTTGA [3d1127] | 0.817
TATCATGTCTAAGACACTTTGGATGGGTTGA [3d1125] | 0.759
TATCATGTGTAAGACACTTTGGATGGGTTGA [3d1124] | 0.84
TATCATTCGTAAGACACTTTGGATGGGTTGA [3d1122] | 0.776
TATCATTGCGAAGACACTTTGGATGGGTTGA [3d1158] | 0.8
TATCATTGCGTAAACACTTTGGATGGGTTGA [3d1160] | 0.814
TATCATTGCGTAAGAACTTTGGATGGGTTGA [3d1162] | 0.837
TATCATTGCGTAAGACACTTGGATGGGTTGA [3d1165] | 0.773
TATCATTGCGTAAGACACTTTGATGGGTTGA [3d1166] | 0.681
TATCATTGCGTAAGACACTTTGGAGGGTTGA [3d1168] | 0.0323
TATCATTGCGTAAGACACTTTGGATGGGTTA [3d1170] | 0.447
TATCATTGCGTAAGACACTTTGGATGGGTTG [3d1171] | 0.815
TATCATTGCGTAAGACACTTTGGATGGGTTGA [2d111] | 0.819
TATCATTGCGTAAGACACTTTGGATGGTTGA [3d1169] | 0.0894
TATCATTGCGTAAGACACTTTGGTGGGTTGA [3d1167] | 0.0667
TATCATTGCGTAAGACATTTGGATGGGTTGA [3d1164] | 0.802
TATCATTGCGTAAGACCTTTGGATGGGTTGA [3d1163] | 0.815
TATCATTGCGTAAGCACTTTGGATGGGTTGA [3d1161] | 0.799

Sequence | fraction ligated
TATCATTGCGTAGACACTTTGGATGGGTTGA [3d1159] | 0.823
TATCATTGCTAAGACACTTTGGATGGGTTGA [3d1157] | 0.784
TATCATTGGTAAGACACTTTGGATGGGTTGA [3d1156] | 0.809
TATCATTGTCAAGACACTTTGGATGGGTTGA [3d1187] | 0.783
TATCATTGTCGAAACACTTTGGATGGGTTGA [3d1202] | 0.81
TATCATTGTCGAAGAACTTTGGATGGGTTGA [3d1204] | 0.809
TATCATTGTCGAAGACACTTGGATGGGTTGA [3d1207] | 0.771
TATCATTGTCGAAGACACTTTGATGGGTTGA [3d1208] | 0.772
TATCATTGTCGAAGACACTTTGGAGGGTTGA [3d1210] | 0.0625
TATCATTGTCGAAGACACTTTGGATGGGTTA [3d1212] | 0.475
TATCATTGTCGAAGACACTTTGGATGGGTTG [3d1213] | 0.796
TATCATTGTCGAAGACACTTTGGATGGGTTGA [2d114] | 0.798
TATCATTGTCGAAGACACTTTGGATGGTTGA [3d1211] | 0.21
TATCATTGTCGAAGACACTTTGGTGGGTTGA [3d1209] | 0.229
TATCATTGTCGAAGACATTTGGATGGGTTGA [3d1206] | 0.794
TATCATTGTCGAAGACCTTTGGATGGGTTGA [3d1205] | 0.768
TATCATTGTCGAAGCACTTTGGATGGGTTGA [3d1203] | 0.784
TATCATTGTCGAGACACTTTGGATGGGTTGA [3d1201] | 0.783
TATCATTGTCGTAAAACTTTGGATGGGTTGA [3d1227] | 0.787
TATCATTGTCGTAAACACTTGGATGGGTTGA [3d1230] | 0.778
TATCATTGTCGTAAACACTTTGATGGGTTGA [3d1231] | 0.597
TATCATTGTCGTAAACACTTTGGAGGGTTGA [3d1233] | 0.0387
TATCATTGTCGTAAACACTTTGGATGGGTTA [3d1235] | 0.472

Sequence | fraction ligated
TATCATTGTCGTAAACACTTTGGATGGGTTG [3d1236] | 0.809
TATCATTGTCGTAAACACTTTGGATGGTTGA [3d1234] | 0.0592
TATCATTGTCGTAAACACTTTGGTGGGTTGA [3d1232] | 0.0641
TATCATTGTCGTAAACATTTGGATGGGTTGA [3d1229] | 0.798
TATCATTGTCGTAAACCTTTGGATGGGTTGA [3d1228] | 0.79
TATCATTGTCGTAACACTTTGGATGGGTTGA [3d1215] | 0.815
TATCATTGTCGTAAGAACTTGGATGGGTTGA [3d1248] | 0.831
TATCATTGTCGTAAGAACTTTGATGGGTTGA [3d1249] | 0.545
TATCATTGTCGTAAGAACTTTGGAGGGTTGA [3d1251] | 0.0299
TATCATTGTCGTAAGAACTTTGGATGGGTTA [3d1253] | 0.623
TATCATTGTCGTAAGAACTTTGGATGGGTTG [3d1254] | 0.815
TATCATTGTCGTAAGAACTTTGGATGGTTGA [3d1252] | 0.0537
TATCATTGTCGTAAGAACTTTGGTGGGTTGA [3d1250] | 0.0672
TATCATTGTCGTAAGAATTTGGATGGGTTGA [3d1247] | 0.796
TATCATTGTCGTAAGACACTGGATGGGTTGA [3d1269] | 0.783
TATCATTGTCGTAAGACACTTGATGGGTTGA [3d1270] | 0.779
TATCATTGTCGTAAGACACTTGGAGGGTTGA [3d1272] | 0.183
TATCATTGTCGTAAGACACTTGGATGGGTTA [3d1274] | 0.728
TATCATTGTCGTAAGACACTTGGATGGGTTG [3d1275] | 0.8
TATCATTGTCGTAAGACACTTGGATGGTTGA [3d1273] | 0.395
TATCATTGTCGTAAGACACTTGGTGGGTTGA [3d1271] | 0.482
TATCATTGTCGTAAGACACTTTATGGGTTGA [3d1276] | 0.0281
TATCATTGTCGTAAGACACTTTGAGGGTTGA [3d1278] | 0.00985

Sequence | fraction ligated
TATCATTGTCGTAAGACACTTTGATGGGTTA [3d1280] | 0.158
TATCATTGTCGTAAGACACTTTGATGGGTTG [3d1281] | 0.765
TATCATTGTCGTAAGACACTTTGATGGTTGA [3d1279] | 0.027
TATCATTGTCGTAAGACACTTTGGAGGGTTA [3d1287] | 0.0162
TATCATTGTCGTAAGACACTTTGGAGGGTTG [3d1288] | 0.0338
TATCATTGTCGTAAGACACTTTGGAGGTTGA [3d1286] | 0.0106
TATCATTGTCGTAAGACACTTTGGATGGGTT [3d1291] | 0.0919
TATCATTGTCGTAAGACACTTTGGATGGGTTA [2d126] | 0.67
TATCATTGTCGTAAGACACTTTGGATGGGTTG [2d127] | 0.784
TATCATTGTCGTAAGACACTTTGGATGGGTTGA [1d6] | 0.796
TATCATTGTCGTAAGACACTTTGGATGGTTA [3d1289] | 0.203
TATCATTGTCGTAAGACACTTTGGATGGTTG [3d1290] | 0.299
TATCATTGTCGTAAGACACTTTGGATGGTTGA [2d125] | 0.456
TATCATTGTCGTAAGACACTTTGGGGGTTGA [3d1282] | 0.0386
TATCATTGTCGTAAGACACTTTGGTGGGTTA [3d1284] | 0.0335
TATCATTGTCGTAAGACACTTTGGTGGGTTG [3d1285] | 0.247
TATCATTGTCGTAAGACACTTTGGTGGTTGA [3d1283] | 0.0252
TATCATTGTCGTAAGACACTTTGTGGGTTGA [3d1277] | 0.0371
TATCATTGTCGTAAGACATTGGATGGGTTGA [3d1262] | 0.801
TATCATTGTCGTAAGACATTTGATGGGTTGA [3d1263] | 0.787
TATCATTGTCGTAAGACATTTGGAGGGTTGA [3d1265] | 0.23
TATCATTGTCGTAAGACATTTGGATGGGTTA [3d1267] | 0.659
TATCATTGTCGTAAGACATTTGGATGGGTTG [3d1268] | 0.766

Sequence | fraction ligated
TATCATTGTCGTAAGACATTTGGATGGTTGA [3d1266] | 0.567
TATCATTGTCGTAAGACATTTGGTGGGTTGA [3d1264] | 0.421
TATCATTGTCGTAAGACCTTGGATGGGTTGA [3d1255] | 0.804
TATCATTGTCGTAAGACCTTTGATGGGTTGA [3d1256] | 0.778
TATCATTGTCGTAAGACCTTTGGAGGGTTGA [3d1258] | 0.104
TATCATTGTCGTAAGACCTTTGGATGGGTTA [3d1260] | 0.697
TATCATTGTCGTAAGACCTTTGGATGGGTTG [3d1261] | 0.778
TATCATTGTCGTAAGACCTTTGGATGGTTGA [3d1259] | 0.493
TATCATTGTCGTAAGACCTTTGGTGGGTTGA [3d1257] | 0.426
TATCATTGTCGTAAGACTTTGGATGGGTTGA [3d1237] | 0.802
TATCATTGTCGTAAGCACTTGGATGGGTTGA [3d1240] | 0.771
TATCATTGTCGTAAGCACTTTGATGGGTTGA [3d1241] | 0.58
TATCATTGTCGTAAGCACTTTGGAGGGTTGA [3d1243] | 0.0203
TATCATTGTCGTAAGCACTTTGGATGGGTTA [3d1245] | 0.474
TATCATTGTCGTAAGCACTTTGGATGGGTTG [3d1246] | 0.767
TATCATTGTCGTAAGCACTTTGGATGGTTGA [3d1244] | 0.0553
TATCATTGTCGTAAGCACTTTGGTGGGTTGA [3d1242] | 0.0707
TATCATTGTCGTAAGCATTTGGATGGGTTGA [3d1239] | 0.796
TATCATTGTCGTAAGCCTTTGGATGGGTTGA [3d1238] | 0.798
